Common to all, as to test: Co-IP with immunoblot quantification
For one experiment, the target named is KXD1 (UniProt Q80XH1). Particulars: uninfected cells cultured overnight; IP: BLOS1; parent: est. 100; read off a plot.
For a further experiment, the target named is SNAPIN (UniProt Q9Z266). The settings on record: read off a plot.
In a further experiment the target is BLOS2 (UniProt Q9CWG9). The settings on record: uninfected cells cultured overnight; IP: BLOS1; parent: est. 100; read off a plot.
The next experiment has as its target PALLIDIN (UniProt Q9R0C0). The settings on record: uninfected cells cultured overnight; IP: BLOS1; parent: est. 100; read off a plot.
Chain of UniProt Q9R0C0 (Q9R0C0 whole entry): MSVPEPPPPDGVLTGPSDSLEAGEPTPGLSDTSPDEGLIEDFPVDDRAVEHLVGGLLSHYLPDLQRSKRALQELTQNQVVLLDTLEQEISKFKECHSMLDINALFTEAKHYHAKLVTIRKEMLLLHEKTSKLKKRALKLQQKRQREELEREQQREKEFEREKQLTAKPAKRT

Chain of UniProt Q9Z266 (Q9Z266 whole entry): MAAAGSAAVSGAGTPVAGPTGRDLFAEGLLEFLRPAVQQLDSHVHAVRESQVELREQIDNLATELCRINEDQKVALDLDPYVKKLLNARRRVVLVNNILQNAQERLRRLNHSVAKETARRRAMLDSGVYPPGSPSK
Chain of UniProt Q9CWG9 (Q9CWG9 whole entry): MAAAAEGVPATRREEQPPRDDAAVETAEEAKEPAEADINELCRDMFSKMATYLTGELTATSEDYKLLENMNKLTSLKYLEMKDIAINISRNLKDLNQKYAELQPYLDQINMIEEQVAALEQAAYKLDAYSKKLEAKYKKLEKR
Chain of UniProt Q80XH1 (Q80XH1 whole entry): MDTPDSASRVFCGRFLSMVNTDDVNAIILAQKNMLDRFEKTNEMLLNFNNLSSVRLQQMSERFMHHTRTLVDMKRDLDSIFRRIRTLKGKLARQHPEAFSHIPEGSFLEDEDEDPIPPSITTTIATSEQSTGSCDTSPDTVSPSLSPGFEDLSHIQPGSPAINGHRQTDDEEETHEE

Regarding “BLOS1 [biogenesis of lysosome-related organelles complex-1 (BLOC-1) subunit 1] (from UniProt O55102) mBloc1s1 (first XAT hexapeptide-repeat motif EALDVH changed to EVVDH or EVDH)”, the percent of parent in the experiment with KXD1 was 10%; in the experiment with SNAPIN (uninfected cells cultured overnight, IP: BLOS1, parent: est. 100), 10%; with BLOS2, 5%; with PALLIDIN, 22%. In addition, the values for the response with SNAPIN (parent: est. 0.67) and with SNAPIN (parent: est. 1.0) were 0.07 and 0.18, respectively.

These data come from paper PMC9119680.
